The record followed here is the Immune Epitope Database (IEDB).

pKd: −log10 of the molar value.

The target of assay [1] is HLA-A*03:01. The assay can be described thus: IEDB peptide-MHC binding, purified MHC/competitive/fluorescence; filed as Kd, often an IC50 or EC50 that approximates it; ≥ and ≤ were set here for values at or beyond the usual limits of such assays.
Assay [2] has as its target HLA-A*02:19. The description is as above.
Assay [3] has as its target HLA-B*18:01. The assay is described as above.
The target of assay [4] is HLA-A*02:03. Described as above.
The target of a further assay is HLA-A*26:01. Described as above.
For assay [5], the target named is HLA-A*02:12. Described as above. To be noted: source organism: Vibrio parahaemolyticus AQ3810.
The target of a further assay is HLA-B*27:03. The assay is described as above.
In assay [6] the target is HLA-B*46:01. The assay is described as above.
The target of the next assay is HLA-B*39:01. Described as above.
Assay [7] addresses HLA-B*57:01. Described as above. To be noted: source organism: Vibrio parahaemolyticus AQ3810.
Assay [8] concerns the target HLA-B*58:01. The assay is described as above.
In the next assay the target is HLA-B*08:02. The assay can be described thus: IEDB peptide-MHC binding, purified MHC/direct/fluorescence; filed as Kd, often an IC50 or EC50 that approximates it; ≥ and ≤ were set here for values at or beyond the usual limits of such assays.
The target of a further assay is HLA-A*31:01. The description is as above.
Assay [9] deals with HLA-B*15:01. The description is as above.
Assay [10] concerns the target HLA-A*69:01. Described as above.
For assay [11], the target named is HLA-A*03:01. The description is as above.
In the next assay the target is HLA-B*44:02. Described as above.
The target of the next assay is HLA-A*11:01. Described as above.
The target of the next assay is HLA-A*29:02. Described as above.
In assay [12] the target is HLA-B*58:01. The description is as above.
In assay [13] the target is HLA-B*18:01. Described as above.
Assay [14] has as its target HLA-A*02:01. Described as above.
In a further assay the target is HLA-B*27:05. The description is as above.
For another assay, the target named is HLA-B*40:01. The description is as above.
For assay [15], the target named is HLA-B*46:01. Described as above.
For assay [16], the target named is HLA-B*57:01. The description is as above.
The target in assay [17] is HLA-A*01:01. The assay is described as above.
Assay [18] concerns the target HLA-A*01:01. The assay can be described thus: IEDB peptide-MHC binding, purified MHC/competitive/fluorescence; filed as Kd, often an IC50 or EC50 that approximates it; ≥ and ≤ were set here for values at or beyond the usual limits of such assays.
Another assay deals with HLA-B*48:01. The assay can be described thus: IEDB peptide-MHC binding, purified MHC/direct/fluorescence; filed as Kd, often an IC50 or EC50 that approximates it; ≥ and ≤ were set here for values at or beyond the usual limits of such assays. As to conditions: source organism: West Nile virus.
The next assay addresses HLA-B*07:02. The description is as above. To be noted: source organism: West Nile virus.
The target in another assay is HLA-B*08:01. The assay is described as above. As to conditions: source organism: West Nile virus.
Assay [19] concerns the target HLA-A*02:11. The assay can be described thus: IEDB peptide-MHC binding, purified MHC/competitive/fluorescence; filed as Kd, often an IC50 or EC50 that approximates it; ≥ and ≤ were set here for values at or beyond the usual limits of such assays. To be noted: source organism: Human immunodeficiency virus 1.
Assay [20] deals with HLA-A*69:01. Described as above.
Assay [21] deals with HLA-A*02:01. Described as above.
Assay [22] concerns the target HLA-B*15:01. The assay is described as above. To be noted: source organism: Shigella flexneri 5 str. 8401.
The next assay addresses HLA-A*68:02. The assay can be described thus: IEDB peptide-MHC binding, purified MHC/direct/fluorescence; filed as Kd, often an IC50 or EC50 that approximates it; ≥ and ≤ were set here for values at or beyond the usual limits of such assays. As to conditions: source organism: Zaire ebolavirus.
Assay [23] addresses HLA-A*02:11. Described as above. As to conditions: source organism: Zaire ebolavirus.
The target in assay [24] is HLA-A*02:19. The description is as above. As to conditions: source organism: Zaire ebolavirus.
A further assay has as its target HLA-A*02:16. Described as above. To be noted: source organism: Zaire ebolavirus.
The target of assay [25] is HLA-A*02:03. The description is as above. To be noted: source organism: Zaire ebolavirus.
The target of assay [26] is HLA-A*02:12. Described as above. As to conditions: source organism: Zaire ebolavirus.
Setting [27] is: source organism: Vibrio parahaemolyticus AQ3810.
Setting [28] is: source organism: Yersinia pestis Antiqua.
Where [29] appears, read: source organism: Yellow fever virus.
The mark [30] stands for this setting: source organism: Salmonella enterica subsp. enterica serovar Typhi.
Setting [31] is: source organism: West Nile virus.
Setting [32] is: source organism: Human immunodeficiency virus 1.
Where [33] appears, read: source organism: Shigella flexneri 5 str. 8401.
[34] abbreviates: source organism: Zaire ebolavirus.
Setting [35] is: source organism: Yersinia pestis Nepal516.

On to SSRGYSAIW, for which the pKd with HLA-A*03:01 [1] (setting [27]), with HLA-A*02:19 [2] (setting [27]), in the assay with HLA-B*18:01 [3] (setting [27]), with HLA-A*02:03 [4] (setting [27]), with HLA-A*26:01 (setting [27]) and with HLA-A*02:12 [5] was at most 4.70 each time. Moreover, the pKd (commonly the Kd on a negative log10 scale, so that one unit is a factor of ten) with HLA-B*27:03 (setting [27]) was at most 4.70; in the assay with HLA-B*46:01 [6] (setting [27]), at most 4.70; with HLA-B*39:01 (setting [27]) it was at most 4.70; with HLA-B*57:01 [7] it was 7.38.

On to SAYERGLRY, for which the negative logarithm of the Kd (pKd) with HLA-A*03:01 [1] (setting [28]) was 7.27; with HLA-B*58:01 [8] (setting [28]), at most 4.70.

As for GSRAYRNAL, the pKd with HLA-B*08:02 (setting [29]), with HLA-A*31:01 (setting [29]), with HLA-B*15:01 [9] (setting [29]), in the assay with HLA-A*69:01 [10] (setting [29]), with HLA-A*03:01 [11] (setting [29]) and in the assay with HLA-B*44:02 (setting [29]) was at most 4.70 in each case. For the same sequence, the pKd with HLA-A*11:01 (setting [29]), with HLA-A*29:02 (setting [29]), with HLA-B*58:01 [12] (setting [29]), in the assay with HLA-B*18:01 [13] (setting [29]), with HLA-A*02:01 [14] (setting [29]) and with HLA-B*27:05 (setting [29]) was at most 4.70 each time. Moreover, the negative logarithm of the Kd (pKd) with HLA-B*40:01 (setting [29]), with HLA-B*46:01 [15] (setting [29]), with HLA-B*57:01 [16] (setting [29]) and in the assay with HLA-A*01:01 [17] (setting [29]) was at most 4.70 in each case.

As to ITSKEVFTY, the figures for the pKd in the assay with HLA-A*03:01 [1] (setting [30]), with HLA-B*58:01 [8] (setting [30]) and with HLA-A*01:01 [18] (setting [30]) were 5.64, 7.59 and 7.47, respectively.

Consider KCRVKMEKL, for which the negative-log Kd (pKd) with HLA-B*08:02 (source organism: West Nile virus strain PTRoxo), with HLA-A*31:01 (setting [31]), with HLA-B*48:01, with HLA-B*15:01 [9] (setting [31]), with HLA-A*69:01 [10] (setting [31]) and in the assay with HLA-A*03:01 [11] (setting [31]) was at most 4.70 each time. Besides, the negative-log Kd (pKd) with HLA-B*44:02 (setting [31]), in the assay with HLA-B*07:02, in the assay with HLA-A*11:01 (setting [31]), with HLA-A*29:02 (setting [31]), with HLA-B*58:01 [12] (setting [31]) and with HLA-B*18:01 [13] (setting [31]) was at most 4.70 each time. Moreover, the pKd in the assay with HLA-A*02:01 [14] (setting [31]), with HLA-B*27:05 (setting [31]), with HLA-B*08:01, with HLA-B*40:01 (setting [31]), with HLA-B*46:01 [15] (setting [31]) and with HLA-B*57:01 [16] (setting [31]) was at most 4.70 each time. The same sequence gave a pKd in the assay with HLA-A*01:01 [17] (setting [31]) of at most 4.70.

For GLADQLIHI, the pKd was 9.70 with HLA-A*02:11 [19]; at most 4.70 in the assay with HLA-A*69:01 [20] (setting [32]); 8.02 with HLA-A*02:19 [2] (setting [32]); 8.92 in the assay with HLA-A*02:03 [4] (setting [32]); 7.53 in the assay with HLA-A*02:01 [21] (setting [32]).

Regarding HLTPAQLSM, the pKd in the assay with HLA-B*15:01 [22] is 5.75; in the assay with HLA-B*58:01 [8] (setting [33]), at most 5.30; in the assay with HLA-A*02:01 [21] (setting [33]) it was 6.52.

Turning to KTNDFAPAW, the negative-log Kd (pKd) was at most 4.70 with HLA-A*68:02; at most 4.70 with HLA-A*02:11 [23]; at most 5.30 in the assay with HLA-B*15:01 [9] (source organism: Ebola virus - Gabon (1994-1997)); at most 4.70 with HLA-A*02:19 [24]; at most 4.70 with HLA-A*02:16; at most 4.70 in the assay with HLA-A*02:03 [25]. The pKd with HLA-A*02:12 [26] is at most 4.70; with HLA-A*69:01 [20] (setting [34]), at most 4.70; with HLA-B*58:01 [8] (setting [34]), 8.89; with HLA-B*18:01 [3] (setting [34]), at most 4.70; in the assay with HLA-A*02:01 [21] (setting [34]), at most 4.70; with HLA-A*26:01 (setting [34]), at most 4.70. For the same sequence, the negative-log Kd (pKd) with HLA-B*27:03 (setting [34]), with HLA-B*46:01 [6] (setting [34]) and with HLA-B*39:01 (setting [34]) was at most 4.70 each time.

In the case of STIVWSSRY, the negative-log Kd (pKd) with HLA-A*03:01 [1] (setting [35]) is 5.46; with HLA-B*58:01 [8] (setting [35]) it was 6.77; with HLA-A*01:01 [18] (setting [35]), 5.85.
